Results as given in publication PMC11931385, “Structural and functional analysis of cancer-associated missense variants in the retinoblastoma protein pocket domain” (The Journal of Biological Chemistry, 2025).
No end group written: not given here. TMR = tetramethyl rhodamine dye

T1: Rb^P E533K (human, UniProt P06400 380-788, E533K)
T1 construct: also called variant 22
T1 sequence (looked up): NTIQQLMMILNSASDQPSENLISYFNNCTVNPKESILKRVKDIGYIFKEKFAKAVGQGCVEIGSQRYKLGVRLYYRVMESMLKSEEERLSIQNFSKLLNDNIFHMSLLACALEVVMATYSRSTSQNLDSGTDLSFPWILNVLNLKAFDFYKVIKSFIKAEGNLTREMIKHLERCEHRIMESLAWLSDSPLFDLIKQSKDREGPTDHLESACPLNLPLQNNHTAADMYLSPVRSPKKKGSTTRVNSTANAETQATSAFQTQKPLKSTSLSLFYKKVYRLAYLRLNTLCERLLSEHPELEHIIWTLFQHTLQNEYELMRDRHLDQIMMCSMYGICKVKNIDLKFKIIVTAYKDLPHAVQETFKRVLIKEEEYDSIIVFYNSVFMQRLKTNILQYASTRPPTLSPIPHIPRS

T2: Rb^P A488V (human, UniProt P06400 380-788, A488V)
T2 construct: also called variant 14
T2 sequence (looked up): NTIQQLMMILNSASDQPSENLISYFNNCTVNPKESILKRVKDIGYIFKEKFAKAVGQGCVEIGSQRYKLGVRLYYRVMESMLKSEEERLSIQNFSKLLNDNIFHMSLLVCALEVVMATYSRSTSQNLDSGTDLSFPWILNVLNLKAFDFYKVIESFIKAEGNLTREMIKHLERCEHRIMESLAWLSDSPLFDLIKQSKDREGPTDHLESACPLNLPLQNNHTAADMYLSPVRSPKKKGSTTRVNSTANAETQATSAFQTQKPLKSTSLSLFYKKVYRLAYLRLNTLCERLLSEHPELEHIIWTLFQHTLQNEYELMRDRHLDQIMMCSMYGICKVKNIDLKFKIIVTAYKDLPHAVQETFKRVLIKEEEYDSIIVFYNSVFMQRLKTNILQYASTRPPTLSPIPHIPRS

T3: Rb^P R741S (human, UniProt P06400 380-788, R741S)
T3 construct: also called variant 70
T3 sequence (looked up): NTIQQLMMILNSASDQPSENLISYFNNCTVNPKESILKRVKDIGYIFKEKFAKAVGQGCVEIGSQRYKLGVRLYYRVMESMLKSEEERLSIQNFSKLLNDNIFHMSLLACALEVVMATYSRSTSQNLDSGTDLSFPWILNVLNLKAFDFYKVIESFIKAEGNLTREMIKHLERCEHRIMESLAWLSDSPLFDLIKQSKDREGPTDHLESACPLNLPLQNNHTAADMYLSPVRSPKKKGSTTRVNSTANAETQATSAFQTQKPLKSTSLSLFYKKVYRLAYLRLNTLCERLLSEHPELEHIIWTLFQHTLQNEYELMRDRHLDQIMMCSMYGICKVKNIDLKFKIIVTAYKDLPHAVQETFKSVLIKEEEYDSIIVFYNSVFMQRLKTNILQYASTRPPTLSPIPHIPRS

T4: Rb^P R656W (human, UniProt P06400 380-788, R656W)
T4 construct: also called variant 49
T4 sequence (looked up): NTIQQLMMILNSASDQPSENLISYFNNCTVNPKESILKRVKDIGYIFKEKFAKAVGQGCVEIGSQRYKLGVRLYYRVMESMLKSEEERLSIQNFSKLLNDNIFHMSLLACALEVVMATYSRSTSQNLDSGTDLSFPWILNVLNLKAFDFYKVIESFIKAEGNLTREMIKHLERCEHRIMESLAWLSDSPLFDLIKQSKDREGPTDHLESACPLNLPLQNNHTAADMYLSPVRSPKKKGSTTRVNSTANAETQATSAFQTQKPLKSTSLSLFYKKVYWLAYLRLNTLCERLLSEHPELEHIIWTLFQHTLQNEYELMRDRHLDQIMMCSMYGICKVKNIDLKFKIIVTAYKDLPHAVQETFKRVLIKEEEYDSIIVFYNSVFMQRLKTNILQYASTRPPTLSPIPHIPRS

T5: Rb^P T687I (human, UniProt P06400 380-788, T687I)
T5 construct: also called variant 59
T5 sequence (looked up): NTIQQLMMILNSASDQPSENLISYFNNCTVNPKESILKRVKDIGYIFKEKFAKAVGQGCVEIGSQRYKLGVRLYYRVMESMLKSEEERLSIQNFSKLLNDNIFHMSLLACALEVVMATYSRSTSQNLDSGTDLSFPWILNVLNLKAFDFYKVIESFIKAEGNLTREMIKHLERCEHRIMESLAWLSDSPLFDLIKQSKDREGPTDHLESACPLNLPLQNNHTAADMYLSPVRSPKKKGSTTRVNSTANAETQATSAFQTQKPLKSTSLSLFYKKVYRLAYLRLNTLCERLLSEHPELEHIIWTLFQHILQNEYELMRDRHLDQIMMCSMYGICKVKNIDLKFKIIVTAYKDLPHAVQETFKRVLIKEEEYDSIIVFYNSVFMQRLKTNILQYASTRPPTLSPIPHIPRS


Legend:
Test in all cases: fluorescence polarisation; 37 °C, after the 25 °C reading ramped over 7 min to 37 °C and 2 min incubation; unlabeled Rb^P against 1.5 nM TMR-E2F1^TD or 7.5 nM TMR-E7^LxCxE; 25 mM Tris pH 8.0, 200 mM NaCl, 1 mM DTT, 0.1% Tween-20; apparent Kd
Settings in all cases: both partners purified
Rb^P E533K = molecular target: T1, Rb^P E533K
Rb^P A488V = molecular target: T2, Rb^P A488V
Rb^P R741S = molecular target: T3, Rb^P R741S
Rb^P R656W = molecular target: T4, Rb^P R656W
Rb^P T687I = molecular target: T5, Rb^P T687I

| Binder | Kd (Rb^P E533K) [nM] | Kd (Rb^P A488V) [nM] | Kd (Rb^P R741S) [nM] | Kd (Rb^P R656W) [nM] | Kd (Rb^P T687I) [nM] |
| --- | --- | --- | --- | --- | --- |
| {TMR}-GEGIRDLFDCDFGDLTPLD (also called E2F^TD; source: synthetic peptide, bought: GenScript) [TMR-E2F1^TD, peptide of the E2F1 transactivation domain] | 1800 | 78 | 84 | 77 | 40 |
| DLYCYEQLN (also: TMR label, position not given here, source: synthetic peptide, bought: GenScript) [TMR-E7^LxCxE, LxCxE peptide of the E7 oncoprotein from HPV] | 14 | 19 | 46 | 19 | 29 |
